Measured values taken from the supplement of paper PMC7125110.
± gives the standard error. Variants at the floor of the assay were thinned out.

B1: glmS ribozyme (parent)
chain: AUAAAAGCGCCAGAACUACAGAAAUGUAGUUGACGAGGAGGAGGUUUAUCGAAUUUUCGGCGGAUGCCUCCAAA

Key:
Conditions in all cases: with glucosamine-6-phosphate
glucosamine-6-phosphate [1] = variants of: B1; experiment: self-cleavage kobs at 640 uM GlcN6P; higher = faster cleavage; RNA array
In short: (§1)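 Glucosamine-6-phosphate, from 40 μM to 10 mM in HEPES/KCl/Mg(OAc)2 buffer, was flowed over sequenced MiSeq chips carrying barcoded ribozyme variants transcribed in situ by E. coli RNA polymerase. A hybridised Cy3 probe tracked the variants at 37 °C as tiles were imaged over ~14 h. kobs, kcat and KM were obtained by fitting normalised per-tile medians to exponential decays and then applying weighted Michaelis–Menten fits across concentrations.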

glucosamine-6-phosphate [2] = variants of: B1; experiment: self-cleavage kobs at 2500 uM GlcN6P; higher = faster cleavage; RNA array
In short: as §1

glucosamine-6-phosphate [3] = variants of: B1; experiment: self-cleavage kobs at 10000 uM GlcN6P; higher = faster cleavage; RNA array
In short: as §1

Variant | self-cleavage kobs at 640 uM GlcN6P (glucosamine-6-phosphate [1]) [s⁻¹] | self-cleavage kobs at 2500 uM GlcN6P (glucosamine-6-phosphate [2]) [s⁻¹] | self-cleavage kobs at 10000 uM GlcN6P (glucosamine-6-phosphate [3]) [s⁻¹]
AUAAAAGCGCCAGCACUACAGAAAUGUAGAUGACGAGGAGGAGGUUUAUCGAAUUUUCGGCGAAUGACUCCAAA [A14C U30A G63A C67A] | < 1e-05 |  | 
AUAAAAGCGCCAGAACUACAGAAAUGUAGUUGACGAGGAGGAGGUUUAUCGAAUUUUCGAUGGAUGCCUUCAAA [G60A C61U C70U] | < 1e-05 | < 1e-05 | 
AUAAAAGCGCCAGAACUACAGAAAUGUAGUUGACGAGGAGGAGGUUAAUCGAAUUUUCGGCGGAUUCAUCCAAA [U47A G66U C68A] | 0.00243 ± 0.00077 | 5.79e-05 ± 1.7e-05 | 
AUAAAAGCGCCAGAACUACAGAAAUGUAGUUGACGAGGAGGAGGUUUAUCGAAUUUUAGGCCGAUGCCUGCAAA [C58A G62C C70G] | 5.64e-05 ± 2.6e-05 |  | 
AUAAAAGCGCCAGAACUACAGAAAUGUAGUUGACGAGGGGGAGGUUUUUCGAAGUUUCGGCGGAUGCCUCCAAA [A39G A48U U54G] | 8.65e-05 ± 1.9e-05 | 0.000287 ± 7.3e-05 | 
AUAAAAGCGCCAGAACUACAGGAAUGUAGUUGACGGGGAGGAGGUUUAUCGAAUUCUCGGCGGAUGCCUGCAAA [A22G A36G U56C C70G] | < 1e-05 | < 1e-05 | 
AUAAAAGCGCCAGAACUACAGAAAUGUAGUUGACGAGGAGGAGGUUUAUCGAAUUUGCGGCGGUUGCCGCCAAA [U57G A64U U69G] | 0.000149 ± 5.9e-05 | 6.09e-05 ± 1.5e-05 | 
AUAAAAGCGACAGAACUACAGAAAUGUAGUUGACGAGGAGGAGGUUUCUCGAAUUUUCCGCGGAUGCCUCCAAA [C10A A48C G59C] | < 1e-05 |  | 
AUAAAAGCGCCAGAACUACAGAAAUGUAGUUGACGAGGAAGAUGUUUAUAGAAUUUUCGGCGGAUGCCUCCAAA [G40A G43U C50A] | < 1e-05 |  | 
AUAAAAGCGCCCGAACUACAGAAAUGUACUUGACGAAGAGGAGGUUUAUCGAAUAUUCGGCGGAUGCCUCCAAA [A12C G29C G37A U55A] | 4.45e-05 ± 1.9e-05 |  | 
AUAAAAGCGCCAGAACUACAGAAAUGUAGUUGUCGCGGAGGAGGCUUAUCGAAUUUUCGGCGGAUGCCUCCAAA [A33U A36C U45C] | < 1e-05 |  | 
AUAAAAGCGCCAGACCUACAGAAAUGUAUAUGACGAGGAGGAGGUUUAUCGAAUUUUCGGCGGAUGCCUCCAAA [A15C G29U U30A] | 0.000117 ± 2.7e-05 | 0.000332 ± 0.00011 | 
AUAAAAGCGCCAGAACUACAGAAAUGUAGCUGACGAGGAGGAGGUUUAUCGAAUAUUCGACGGAUGCCUCAAAA [U30C U55A G60A C71A] | < 1e-05 |  | 
AUAAAAGCGCCAGAACUACAGAAAUGUAGUUGACGAGGAGGAGGUUUACCAAAUUUUCGGCGGAUGCCUCCAAA [U49C G51A] | < 1e-05 |  | < 1e-05
AUAAAAGCGCCAGAGCUACAGAAAUGUACUUGACGAGAAGGAGGUUCAUCGAAUUUUCGGCGGAUGCCUCAAAA [A15G G29C G38A U47C C71A] | < 1e-05 | < 1e-05 | 
AUAAAAGCGCCAGAACUACAGAAAUGUAGUUAACGAGGAGGAGGUUUAUGGAAUUUUCGGCGGAUGCCUCCAAA [G32A C50G] | 6.29e-05 ± 2.1e-05 |  | 2.9e-05 ± 1.4e-05
AUAAAGGCGCCCGAACUACAGAAAUGUAGUUGACGAGGAGGAGGUUUAUCGAAUGUUCGGCGGAUGCCUCCAAA [A6G A12C U55G] | 7.46e-05 ± 1.3e-05 | 0.000177 ± 3.7e-05 | 
AUAAAAGCGCCCGCACUACAGAAAUGUAGUUAACGAGGAGGAGCUUUAUCGAAUUUUCGGCGGAUGCCUGCAAA [A12C A14C G32A G44C C70G] | < 1e-05 | < 1e-05 | 
AUAAAAGCGCCAGAACUACAGAAAUGUAGCUGACGAGGAGGAGGUUUAUCGAAUUUUCCGCGUAUGCCUCCAAA [U30C G59C G63U] | < 1e-05 |  | 
AUAAAAGCGCCAGCACUACAGAAAUGUAGUUGACGAGGAGGAGGUUUAGCGAAUUUUCGGCGGAUGCCUGCAAA [A14C U49G C70G] | 0.000526 ± 0.00023 |  | 
AUAAAAGCGCCAGAACUACAGAAAUGUAGUUGACGAAGAGGCGGUUUAUCGAAUUUUCGGAGGAUGCCUCCAAA [G37A A42C C61A] | < 1e-05 |  | 
AUAAAAGCGCCAGAACUACAGAAAUGUAGUUGAGGAGGAGGAGGUUUGUCGAAUUUUCGGCGGAUGCCUUCAAA [C34G A48G C70U] | < 1e-05 |  | 
AUAAAACCUCGAGAAGUACAGAAAUGUAGGUGACGAGGAGGAUUUUUAUCGAAUUUUCGGUGGAUGCCUCCAAA [G7C G9U C11G C16G U30G G43U G44U C61U] | < 1e-05 | < 1e-05 | < 1e-05
AUAAAAGCGCCCGAACUACAGAAAUGUAGUUGACGAGGAGGAGGUUUAUCGAAUUUUCGGCGGAUGCCUGGAAA [A12C C70G C71G] | 5.18e-05 ± 2.5e-05 | 4.37e-05 ± 1.9e-05 | 

Variant | self-cleavage kobs at 640 uM GlcN6P (glucosamine-6-phosphate [1]) [s⁻¹] | self-cleavage kobs at 2500 uM GlcN6P (glucosamine-6-phosphate [2]) [s⁻¹] | self-cleavage kobs at 10000 uM GlcN6P (glucosamine-6-phosphate [3]) [s⁻¹]
AUAAAGGCGCCAGAACUACAGAAAUGUAGUUGACGACGAGGAAGUCUAUCGAAUUUUCGGCGGAUGCCUCCAAA [A6G G37C G43A U46C] | < 1e-05 |  | 
AUAAAAGCGCCAGAACUACAGAAAUGUAGUUGACGAGGAGGAGGUUUCUCGAAUUGUCGAGGGAUGCCUCCAAA [A48C U56G G60A C61G] | < 1e-05 |  | 
AUAAAAGCGCCAGAACUACAGAAAUGUAGUUGACGAGGAGGAGGUCUUUGUAAUUUUCGGCGGAUGCCUCCAAA [U46C A48U C50G G51U] | < 1e-05 | < 1e-05 | < 1e-05
AUAAAAGCGCCAGAACUACAGAAAUGUACUUGACGAGGAGGAGGUUUAUCGAAUUUUUGGCGGAUGCCACCAAA [G29C C58U U69A] | 5.92e-05 ± 2.8e-05 |  | 
AUAAAAGCGCCAGAACUACAGAAAUGUAGGUGACGAGGCGGAGGUUUAUCGAAGUUUCGGCGGAUGCCUCCAAA [U30G A39C U54G] | 0.0002 ± 3.1e-05 | 0.00053 ± 8.2e-05 | 0.00136 ± 0.0002
AUAAAAGCGCCAGAACUACAGAAAUGUAGUUGACAAGGUGGAGGUUUAUCCAAUUUUCGGCGGAUGCCUCCAAA [G35A A39U G51C] | < 1e-05 | < 1e-05 | 
AUAAAAGCGCCAGAACUACAGAAAUGUAGUCGACGAGGAGGGGGUUUAUCGAAUUUUCGGCGGAUGCCUUCAAA [U31C A42G C70U] | 0.000788 ± 0.00029 |  | 
AUAAAAGCGCCAGAACUACAGAAAUGUAGUUCACGAGGAGGAGGUUUAUCGACUUUUCGGCCGAUGCCUCCAAA [G32C A53C G62C] | < 1e-05 | < 1e-05 | 
AUAAAAGCGCCAGAACUACAGAAAUGUAGUUGACGAGGAGGAGGUUUAUCGAAUAUUCGGCGGAUGACUGCAAA [U55A C67A C70G] | 0.000113 ± 2.4e-05 | 7.88e-05 ± 1.6e-05 | 
AUAAAAGAGCCAGAAUUACAGAAAUGUAGUUGACGAGGAGGAGGUUUAUUGAAUUGUCGGCGGAUGCCUCCAAA [C8A C16U C50U U56G] | < 1e-05 |  | 
AUAAAAGUGCCAGAACUACAGAAAUGUAGUUGACGAGGAGGAGGUUUGUCGAAUUUUCGGCGGGUGCCUCCAAA [C8U A48G A64G] | < 1e-05 |  | 
AUAAAAGCUCCAGAACUACAGAAAUGUAGUUGACGAGGAGGAGAUUUAUCGAAUUUUCGGCGGCUGCCUCCAAA [G9U G44A A64C] | < 1e-05 |  | 
AUAAAAGCGCCAGAACUACAGAAAUGUAGUUGAAGAGGCGAAGGUUUAUCGAAUUUUCGGCGGAUUCCUCCAAA [C34A A39C G41A G66U] | < 1e-05 | < 1e-05 | 
AUAAAAGCGCCACAACUACAGAAAUGUAGUUGACGAGGAGGAGGUUUAUCGAAUUUUCUGCGGAUGACUCUAAA [G13C G59U C67A C71U] | 5.98e-05 ± 2.4e-05 |  | 
AUAAAAGCGCCAGAACUACAGAAAUGUAGUUGACGAGGAGGAGGUUAAUCAAAUUUUCGGCGGAUGCCUCGAAA [U47A G51A C71G] | 0.0001 ± 3.9e-05 |  | 
AUAAAAGCUCCAGAACUACAGAAAUGUAGUUGACGUGGAUGAGGUUUAUCGAAUUUUCGACGGAUGCCUCCAAA [G9U A36U G40U G60A] | < 1e-05 |  | 
AUAAAAGCGCCAGCACUACAGAAAUGUAGUUGAAGAGGAGGAGGUAUAUCGAAUUUUCGGCGGAUGCCUCCAAA [A14C C34A U46A] | < 1e-05 |  | 
AUAAAAGUGCCAGAACUACAGAAAUGUAGUCGACGAGGAGGAGGUUUAUCGAAUUUUCGGCGGAUGCCACCAAA [C8U U31C U69A] | 0.00179 ± 0.00081 |  | 
AUAAAAGCGCCAGAACUACAGAAAUGUAGUUGAAGAGGAGGAGGUUUAUCGAAUUUUCGGCGGAUGUCUCCAAA [C34A C67U] | < 1e-05 | < 1e-05 | 
AUAAAAGCGCCAGAACUACAGAAAUGUAGUUGACGAGGAGUAGGUUUAUUGAAUUUUCGGCGUAUGCCUCCAAA [G41U C50U G63U] | < 1e-05 | < 1e-05 | < 1e-05
AUAAAAGCGCCAGAACUACAGAAAUGUAAUUGACGAGUAGGAGGUUUAUGGAAUUUUCGGCGGAUGCCUCCAAA [G29A G38U C50G] | 0.00061 ± 0.00027 |  | 
AUAAACGCGGCAGAACUACAGAAAUGUAGUUGACGAGGAGUAGGUUUAUCGAAUUUUCGGCGGAUGCCUCCAAA [A6C C10G G41U] | < 1e-05 | < 1e-05 | 
AUAAAAGCGUCAGAACUACAGAAAUGUAGUUGACGAGGAGGAGUUUUAUCGAAGCUUCGGCGGAUGCCUCCAAA [C10U G44U U54G U55C] | < 1e-05 | < 1e-05 | 
